Here are results for one molecule from patent US20200181597A1, “Composition and Application of Arginine-depleting Agents for Cancer, Obesity, Metabolic Disorders, and Related Complications and Comorbidities” (THE HONG KONG POLYTECHNIC UNIVERSITY, priority 2018, published 2020).

In assay [1] the test system is MCF-7 cancer cells. Nature of the assay: cells. It counts as cell-based, human. Particulars: MCF-7, single agent. The method, then: (§1) Breast cancer cell lines (e.g. human MCF-7 and MDA-MB-231 cells) were used in these studies. Cancer cells (5×10^3 cells) were seeded in 96-well plates (TPP) with […] complete medium. The plates were incubated in incubator overnight and the cells were allowed to adhere to the plates. […] Each dosage was triplicated in 3 wells to obtain the average change of cell viability. […] The plates were put back into the incubator and further incubated for 4 h. To dissolve the insoluble compound, formazan, formed by MTT, 100 μl of 10% SDS in 0.01 M HCl was added. The plates were incubated at 37° C. overnight. The color change was measured by spectrophotometer at 570 nm. Control set up (without any drug) was used as base to calculate percentage of cell viability which was used to plot the dose response curve by the software Prism 6.0 (GraphPad) to find the IC50 values. […] CalcuSyn software (Biosoft) was used for calculating the CI values.

Assay [2] concerns MDA-MB-231 breast cancer cells. Nature of the assay: cells. As to conditions: MDA-MB-231, single agent. Format: cell-based, human. The method, then:
as §1

Assay [3] deals with MDA-MB-231 cells. Briefly: Trans-well migration and invasion assay. Format: cell-based, human. As to conditions: 1 U/mL, 24 h. The method, then:
(§2) Breast cancer cell lines (human MDA-MB-231 cells and mouse 4T1 cells) were used in these studies. Both migration assay and invasion assay were performed in 24 wells Costar (Corning) Trans-well system (polycarbonate membrane inserts, pore size 8.0 μm). Before the assay, the cells were cultivated in appropriate serum free medium for at least 24 h. One day before seeding cells to the upper chambers, 100 μL diluted matrigel was added to the upper chambers of the inserts for invasion assay. Serum free medium (100 μL) was added to the upper chamber used for migration assay. The 24 well plates were incubated in the incubator for overnight. The next day, cells were trypsinized and counted. In the studies, 3×10^4 cells of 4T1 or 5×10^4 cells of MDA-MB-231, with 200 μL appropriate serum free medium, were seeded into the upper chambers. Appropriate complete medium (750 μL) was added to the lower chambers. For the drug treatment group, 1 U/mL His-rhArg (SEQ ID NO: 101) was added to both chambers. The 24 well plates were incubated at 37° C. humidified atmosphere with 5% CO2 for 20 h (4T1 cells) or 24 h (MDA-MB-231 cells).
(§3) After incubation, the medium in the upper chambers was removed. The trans-well inserts were washed with 1×PBS twice. Cold 100% methanol was added to both upper chambers and lower chambers for 10 min to fix the cells. The inserts were washed with 1×PBS for two times. […]

Assay [4] has as its system 4T1 cells. Briefly: Trans-well migration and invasion assay. Format: cell-based, mouse. As to conditions: 1 U/mL, 20 h. The protocol: as §2, §3

B1: His-rhArg: recombinant human arginase with His tag, SEQ ID NO: 101 (protein)
chain: MHHHHHHMSAKSRTIGIIGAPFSKGQPRGGVEEGPTVLRKAGLLEKLKEQECDVKDYGDLPFADIPNDSPFQIVKNPRSVGKASEQLAGKVAEVKKNGRISLVLGGDHSLAIGSISGHARVHPDLGVIWVDAHTDINTPLTTTSGNLHGQPVSFLLKELKGKIPDVPGFSWVTPCISAKDIVYIGLRDVDPGEHYILKTLGIKYFSMTEVDRLGIGKVMEETLSYLLGRKKRPIHLSFDVDGLDPSFTPATGTPVVGGLTYREGLYITEEIYKTGLLSGLDIMEVNPSLGKTPEEVTRTVNTAVAITLACFGLAREGNHKPIDYLNPPK
modifications: His tag; His-rhArg, Synthesized in Lab
Take B1: the results for the IC50 in assay [1] and in assay [2] were 0.7869 U/mL and 0.9522 U/mL, respectively. The “number of cancer cells that can migrate and invade via the transwell inserts” value in assay [3] and in assay [4] was “decreased” in each case.
